The values that follow come from paper PMC12260524, “Identification of a VPS29 isoform with restricted association to Retriever and Retromer accessory proteins through autoinhibition” (Proceedings of the National Academy of Sciences of the …, 2025).

This assay concerns the target GST-VPS29C (human, UniProt F8VXU5 1-214). Briefly: ITC; 300 μM peptide titrated into 10 μM GST-tagged VPS29C, 25 °C, 50 mM Tris-HCl pH 7.5, 200 mM NaCl, 2 mM β-mercaptoethanol; single-site model. Particulars: both partners purified.

B1: VPS35L 16 to 38 (peptide)
peptide: EFASCRLEAVPLEFGDYHPLKPI
notes: also called VPS35L Pro-Leu motif containing peptide
With B1, the dissociation constant (Kd) is above 100 µM.
